The values below come from publication PMC7305185 (2020).

For orientation: Kd means a measure of binding affinity in units of concentration. The low end stands for higher affinity, the high end for lower affinity.

For the assay, the target named is eukaryotic translation initiation factor 4E (eIF4E) (UniProt P06730 1-217). In words: ITC. On the technique in general: In ITC the heat of successive injections is recorded.
Chain of eukaryotic translation initiation factor 4E (eIF4E) (P06730 whole entry): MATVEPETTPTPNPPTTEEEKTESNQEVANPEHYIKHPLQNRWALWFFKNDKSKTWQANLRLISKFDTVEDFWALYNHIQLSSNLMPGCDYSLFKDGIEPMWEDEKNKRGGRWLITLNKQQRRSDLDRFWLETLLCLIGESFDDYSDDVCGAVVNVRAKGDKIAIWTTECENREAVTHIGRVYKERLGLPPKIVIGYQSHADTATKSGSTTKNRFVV

B1: pT37 4E-BP2 (protein)
chain: MSSSAGSGHQPSQSRAIPTRTVAISDAAQLPHDYCTTPGGTLFSTAPGGTRIIYDRKFLLDRRNAPMAQAPPCHLPNIPGVTAPGTLIEDSKVEVNNLNNLNNHDRKHAVGDDAQFEMDI
modifications: phospho-Thr37
Turning to B1, binding was put at a Kd of 7.2 nM.

B2: pT46 4E-BP2 (protein)
chain: MSSSAGSGHQPSQSRAIPTRTVAISDAAQLPHDYCTAPGGTLFSTTPGGTRIIYDRKFLLDRRNAPMAQAPPCHLPNIPGVTAPGTLIEDSKVEVNNLNNLNNHDRKHAVGDDAQFEMDI
modifications: phospho-Thr46
In the case of B2, the Kd is 2.4 nM.

B3: Non-phospho 4E-BP2 (protein)
chain: MSSSAGSGHQPSQSRAIPTRTVAISDAAQLPHDYCTTPGGTLFSTTPGGTRIIYDRKFLLDRRNSPMAQTPPCHLPNIPGVTSPGTLIEDSKVEVNNLNNLNNHDRKHAVGDDAQFEMDI
As for B3, binding was put at a Kd of 3.2 nM.

B4: pT37 pT46 (Two-phospho) 4E-BP2 (protein)
chain: MSSSAGSGHQPSQSRAIPTRTVAISDAAQLPHDYCTTPGGTLFSTTPGGTRIIYDRKFLLDRRNAPMAQAPPCHLPNIPGVTAPGTLIEDSKVEVNNLNNLNNHDRKHAVGDDAQFEMDI
modifications: phospho-Thr37, phospho-Thr46
With B4, the Kd was found to be 267 nM.

B5: G39V/G48V Five-phospho 4E-BP2 (protein)
chain: MSSSAGSGHQPSQSRAIPTRTVAISDAAQLPHDYCTTPVGTLFSTTPVGTRIIYDRKFLLDRRNSPMAQTPPCHLPNIPGVTSPGTLIEDSKVEVNNLNNLNNHDRKHAVGDDAQFEMDI
modifications: phospho-Thr37, phospho-Thr46, phospho-Ser65, phospho-Thr70, phospho-Ser83 (legend prints pT36, taken as a typo for pT37)
Consider B5, for which the Kd was 36.1 nM.

B6: pS65 pT70 pS83 (T37A/T46A) 4E-BP2 (protein)
chain: MSSSAGSGHQPSQSRAIPTRTVAISDAAQLPHDYCTAPGGTLFSTAPGGTRIIYDRKFLLDRRNSPMAQTPPCHLPNIPGVTSPGTLIEDSKVEVNNLNNLNNHDRKHAVGDDAQFEMDI
modifications: phospho-Ser65, phospho-Thr70, phospho-Ser83
In turn, B6 displayed an equilibrium dissociation constant (Kd) of 11.3 nM.
